Measured values as given in PMC3205914 (Nature cell biology, 2010).

Columns and labels:
[1] = target: T1, 6His–ParB (Caulobacter crescentus) (C. crescentus, UniProt B8GW30 1-304); assay: SPR
T1 sequence (looked up): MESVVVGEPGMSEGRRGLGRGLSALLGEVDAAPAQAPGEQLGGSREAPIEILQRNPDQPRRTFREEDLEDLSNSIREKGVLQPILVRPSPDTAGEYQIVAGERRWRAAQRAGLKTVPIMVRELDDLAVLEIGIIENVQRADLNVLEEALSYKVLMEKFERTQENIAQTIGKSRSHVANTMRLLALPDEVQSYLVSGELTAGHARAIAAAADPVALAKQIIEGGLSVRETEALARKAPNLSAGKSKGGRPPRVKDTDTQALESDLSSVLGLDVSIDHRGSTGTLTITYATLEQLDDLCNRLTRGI

light scattering = target: the molecule itself; assay: light scattering
[2] = target: T2, ParB (Caulobacter crescentus centromere-binding protein), immobilized for SPR (C. crescentus, UniProt B8GW30 1-304); assay: SPR
T2 sequence (looked up): T1 sequence (looked up)

Measured: binding result

B1: ParA (Caulobacter crescentus ATPase ParA), purified (enzyme, C. crescentus, UniProt B8GW31 1-267, looked up)
chain: MSANPLRVLAIANQKGGVGKTTTAINLGTALAACGERVLLIDADPQGNCSTGLGIGRTQRRTTLYDVLMGEAPVVDAAVKTELPGLDVIPADADLSGVEIELGQTARRSYRLRDALEAIRANGPYTYVLIDCPPSLNVLTVNAMTAADAVFVPLQCEFFALEGLTQLMRTIERVRGSLNPRLEIQGVVLTMYDRRNSLSEQVAKDVRAHFGDKVYDAVIPRNVRVSEAPSFGKPVLLYDLKCAGSQAYLKLAREVISRERDRQAKAA
binds: [1] | light scattering | [2]
